In PMC10968536:

Columns and labels:
[1] = test system: HalTzlAGA (synthetic (no organism)); assay: fluorescence anisotropy; settings: Fluorescence anisotropy: 100 nM FAM-TAR in TB buffer, 25 °C, 20 min, ex 480/em 518 nm, one-site fit; CD: 5 µM TAR with 50 µM nucleopeptide (Methods; abstract …)
[2] = test system: HalTzlTCCCAG (synthetic (no organism)); assay: fluorescence anisotropy; settings: Fluorescence anisotropy: 100 nM FAM-TAR in TB buffer, 25 °C, 20 min, ex 480/em 518 nm, one-site fit; CD: 5 µM TAR with 50 µM nucleopeptide (Methods; abstract …)

With “CCAGAUCUGAGCCUGGGAGCUCUCUGG [5'-FAM(6)-TAR UCU]” the Kd [1] was 256 µM and the Kd [2] was 38.3 µM.
